Experimental data published in patent publication US20240116985A1 (published 2024).
Starred links: 1 amine or outer side, 2 acyl side, 3 side chain; linkers in the order of their positions; H or OH if unused. Positions of bridges follow the written chain, without caps; N, C: chain ends. Non-standard residues stand in square brackets, D forms with d. Primed or numbered codes have the meaning given here. *: point of attachment. PyrS2″ = (S)-3-amino-1-((pent-4-en-1-yloxy)carbonyl)pyrrolidine-3-carboxylic acid (stapling residue), C=CCCCOC(=O)N1CC[C@@](N[*:1])(C(=O)[*:2])C1; B5(16) = 2-amino-2-(pent-4-en-1-yl)hept-6-enoic acid = 2,2-bis(4-pentenyl)glycine (stitching residue), C=CCCCC(CCCC=C)(N[*:1])C(=O)[*:2]; B5(4) = 2,2-bis(4-pentenyl)glycine = 2-amino-2-(pent-4-en-1-yl)hept-6-enoic acid (stitching residue), C=CCCCC(CCCC=C)(N[*:1])C(=O)[*:2]; PyrS2 = (S)-3-amino-1-((pent-4-en-1-yloxy)carbonyl)pyrrolidine-3-carboxylic acid, C=CCCCOC(=O)N1CC[C@@](N[*:1])(C(=O)[*:2])C1; Phe(2-Cl) = N[C@@H](Cc1ccccc1Cl)C(=O)O; Bta = N[C@@H](Cc1csc2ccccc12)C(=O)O; αAllylPro = C=CC[C@@]1(C(=O)O)CCCN1; iPr = CC(C)*

Tests used:
[1] = molecular target: T1, full-length beta-Catenin (Uniprot ID P35222) (Homo sapiens (Human), UniProt P35222 2-781); test: fluorescence polarization competition; 10 nM full-length beta-catenin, 10 nM 5FAM-TCF4(10-53) probe
T1 construct: The FP assay uses 10 nM 'full-length beta-Catenin (Uniprot ID P35222)'; also called bCat; B-Catenin
T1 sequence: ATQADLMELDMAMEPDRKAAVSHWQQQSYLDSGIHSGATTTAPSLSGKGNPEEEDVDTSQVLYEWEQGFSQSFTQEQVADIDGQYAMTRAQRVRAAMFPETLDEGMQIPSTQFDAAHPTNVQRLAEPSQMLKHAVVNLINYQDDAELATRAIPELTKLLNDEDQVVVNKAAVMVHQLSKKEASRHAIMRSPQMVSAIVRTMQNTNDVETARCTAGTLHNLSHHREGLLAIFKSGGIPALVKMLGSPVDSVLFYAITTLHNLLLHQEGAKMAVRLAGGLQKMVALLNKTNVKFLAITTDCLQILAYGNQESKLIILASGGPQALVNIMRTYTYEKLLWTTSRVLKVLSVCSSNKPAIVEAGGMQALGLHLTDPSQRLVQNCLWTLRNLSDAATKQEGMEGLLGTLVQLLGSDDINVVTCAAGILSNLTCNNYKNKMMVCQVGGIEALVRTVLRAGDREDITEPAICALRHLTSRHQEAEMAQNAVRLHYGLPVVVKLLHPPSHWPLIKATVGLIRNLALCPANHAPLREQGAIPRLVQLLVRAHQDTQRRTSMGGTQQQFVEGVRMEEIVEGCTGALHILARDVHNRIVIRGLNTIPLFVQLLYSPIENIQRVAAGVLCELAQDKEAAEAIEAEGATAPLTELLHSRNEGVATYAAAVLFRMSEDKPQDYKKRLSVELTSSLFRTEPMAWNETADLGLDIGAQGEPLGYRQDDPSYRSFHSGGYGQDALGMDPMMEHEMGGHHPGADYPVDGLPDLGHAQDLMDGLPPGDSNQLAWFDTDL
Procedure: The plate was incubated protected from light for 60 minutes at 20° C. prior to read. Reads were performed on a CLARIOstar plate reader (BMG Labtech) in duplicate, and data were fitted to a 1:1 binding model with hill slope using an in-house script. All provided concentrations are final concentrations.

[2] = molecular target: T2, full-length beta-Catenin (Uniprot ID P35222) (Homo sapiens (Human), UniProt P35222 2-781); test: fluorescence polarization competition; full-length beta-catenin, competitor 5FAM-TCF4(10-53) probe
T2 construct: also called bCat; B-Catenin
T2 sequence: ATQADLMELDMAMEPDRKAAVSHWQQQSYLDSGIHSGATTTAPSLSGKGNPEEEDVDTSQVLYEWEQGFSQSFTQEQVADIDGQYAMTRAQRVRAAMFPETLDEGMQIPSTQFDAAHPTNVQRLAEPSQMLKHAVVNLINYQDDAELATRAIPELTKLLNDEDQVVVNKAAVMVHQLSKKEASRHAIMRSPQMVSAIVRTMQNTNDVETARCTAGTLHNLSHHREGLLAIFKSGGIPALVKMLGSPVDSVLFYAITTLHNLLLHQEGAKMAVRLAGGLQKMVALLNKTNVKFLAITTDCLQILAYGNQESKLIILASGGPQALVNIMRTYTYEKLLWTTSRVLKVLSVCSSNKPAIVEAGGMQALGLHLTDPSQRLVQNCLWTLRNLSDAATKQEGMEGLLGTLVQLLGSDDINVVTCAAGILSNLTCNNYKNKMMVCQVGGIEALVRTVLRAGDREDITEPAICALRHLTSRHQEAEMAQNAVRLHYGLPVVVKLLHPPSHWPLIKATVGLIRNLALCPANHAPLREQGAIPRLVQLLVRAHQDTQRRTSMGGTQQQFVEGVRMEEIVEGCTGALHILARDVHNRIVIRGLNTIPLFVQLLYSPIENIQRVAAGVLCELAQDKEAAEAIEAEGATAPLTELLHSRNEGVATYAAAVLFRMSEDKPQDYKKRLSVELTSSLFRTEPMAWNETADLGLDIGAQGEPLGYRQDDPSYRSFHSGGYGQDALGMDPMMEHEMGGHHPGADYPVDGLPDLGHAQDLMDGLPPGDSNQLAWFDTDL
Method in brief: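 Plate incubated 60 minutes at 20° C. protected from light before reading. Concentrations given are final.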

B1: I-1647 (peptide)
peptide: Ac-[αAllylPro]NY[B5(16)]DQK(iPr)AFL[PyrS2]F[Bta]Q-NH2
modifications: staple 1-4, 4-11
notes: Stapled peptide; also called Ac-PL3-Asn-Tyr-B5-Asp-Gln-iPrLys-Ala-Phe-Leu-PyrS2-Phe-BztA-Gln-NH2
B1 showed an IC50 [1] of 2350 nM.

Ac-[αAllylPro]DF[B5(4)]DDLLFT[PyrS2″][Phe(2-Cl)][Bta]S-NH2 (staple 1-4, 4-11, '2C1F' is printed for 2ClF) [I-1158] was tested, and the IC50 [2] was 168 nM.
